Reference: publication PMC3695523, “Reconstitution and characterization of eukaryotic N6-threonylcarbamoylation of tRNA using a minimal enzyme system” (Nucleic Acids Research, 2013)

Substrate: C[C@@H](O)[C@H](N)C(=O)O
Experiment: HPLC nucleoside analysis of t6A formed on tRNA-Ile in reconstituted assay
Type: biochemical, Saccharomyces cerevisiae
Details: coupled two-enzyme system: Sua5 plus yeast Qri7 (30-407), 2 uM Sua5/Qri7, 20 uM tRNA-Ile, 2 mM ATP, 1 mM NaHCO3, 5 mM MnCl2, 200 mM NaCl, 50 mM Tris-HCl pH 8.0, ambient temperature, 60 min

B1: Sua5 (Saccharomyces cerevisiae S288C) (protein)
chain: MYLGRHFLAMTSKALFDTKILKVNPLSIIFSPDAHIDGSLPTITDPETEAALVEAARIIRDTDETVAFPTETVYGLGGSALNDNSVLSIYRAKNRPSDNPLITHVSSIDQLNRKVFNQPHLSGTSLFDNIPSIYRPLISSLWPGPLTILLPVPSSEHSALSKLTTADQPTFAVRIPANPVARALIALSDTPIAAPSANASTRPSPTLASHVYHDLKDKIPIILDGGACKVGVESTVVDGLCNPPTLLRPGGFTYEEIVKLGGEAWSLCKVENKKTVEKGEKVRTPGMKYRHYSPSAKVVLLVPHCEGDGILKGVDRMERLKRLIETELKANSNIKKIAILTSLKLRDSDLQSKIFNEPDFSSKTFIIERLGQSGEEIQTNLFAALRKVDENDKVDLIFVEGINEEGEGLAVMNRLRKAAANNCIQF
notes: full length; N-terminal hexa-histidine or GST tag; expressed in E. coli BL21 (DE3) CodonPlus
- Km: 0.11 ± 0.014 µM
